Experimental data as given in article PMC7367873, “Dissecting the sequence determinants for dephosphorylation by the catalytic subunits of phosphatases PP1 and PP2A” (Nature Communications, 2020).

What was measured:
GFP-14-3-3β = GFP-14-3-3β co-IP with LC-MS/MS, untreated GFP-14-3-3β versus GFP control (14-3-3 interactome); format: binding, human; details: pairwise comparison untreated vs GFP
[1] = test system: GFP-14-3-3β and its binding proteins; assay: GFP-14-3-3β co-IP with LC-MS/MS label-free quantification, untreated versus PP1c-treated; set-up: species or system human; details: pairwise comparison PP1 vs untreated

Molecule | Difference (log2), PP1 vs untreated [1] | Difference (log2), untreated vs GFP (GFP-14-3-3β)
EIF2AK2 (protein, UniProt P19525 2-551, looked up) Interferon-induced, …: AGDLSAGFFMEELNTYRQKQGVVLKYQELPNSGPPHDRRFTFQVIIDGREFPEGEGRSKKEAKNAAAKLAVEILNKEKKAVSPLLLTTTNSSEGLSMGNYIGLINRIAQKKRLTVNYEQCASGVHGPEGFHYKCKMGQKEYSIGTGSTKQEAKQLAAKLAYLQILSEETSVKSDYLSSGSFATTCESQSNSLVTSTLASESSSEGDFSADTSEINSNSDSLNSSSLLMNGLRNNQRKAKRSLAPRFDLPDMKETKYTVDKRFGMDFKEIELIGSGGFGQVFKAKHRIDGKTYVIKRVKYNNEKAEREVKALAKLDHVNIVHYNGCWDGFDYDPETSDDSLESSDYDPENSKNSSRSKTKCLFIQMEFCDKGTLEQWIEKRRGEKLDKVLALELFEQITKGVDYIHSKKLIHRDLKPSNIFLVDTKQVKIGDFGLVTSLKNDGKRTRSKGTLRYMSPEQISSQDYGKEVDLYALGLILAELLHVCDTAFETSKFFTDLRDGIISDIFDKKEKTLLQKLLSKKPEDRPNTSEILRTLTVWKKSPEKNERHTC | -0.09631 log2 | 2.168 log2
TMOD3 (protein, UniProt Q9NYL9 1-352, looked up) Tropomodulin-3: MALPFRKDLEKYKDLDEDELLGNLSETELKQLETVLDDLDPENALLPAGFRQKNQTSKSTTGPFDREHLLSYLEKEALEHKDREDYVPYTGEKKGKIFIPKQKPVQTFTEEKVSLDPELEEALTSASDTELCDLAAILGMHNLITNTKFCNIMGSSNGVDQEHFSNVVKGEKILPVFDEPPNPTNVEESLKRTKENDAHLVEVNLNNIKNIPIPTLKDFAKALETNTHVKCFSLAATRSNDPVATAFAEMLKVNKTLKSLNVESNFITGVGILALIDALRDNETLAELKIDNQRQQLGTAVELEMAKMLEENTNILKFGYQFTQQGPRTRAANAITKNNDLVRKRRVEGDHQ | -0.1127 log2 | 0.4757 log2
TRIP13 (protein, UniProt Q15645 1-432, looked up) Pachytene checkpoint protein …: MDEAVGDLKQALPCVAESPTVHVEVHQRGSSTAKKEDINLSVRKLLNRHNIVFGDYTWTEFDEPFLTRNVQSVSIIDTELKVKDSQPIDLSACTVALHIFQLNEDGPSSENLEEETENIIAANHWVLPAAEFHGLWDSLVYDVEVKSHLLDYVMTTLLFSDKNVNSNLITWNRVVLLHGPPGTGKTSLCKALAQKLTIRLSSRYRYGQLIEINSHSLFSKWFSESGKLVTKMFQKIQDLIDDKDALVFVLIDEVESLTAARNACRAGTEPSDAIRVVNAVLTQIDQIKRHSNVVILTTSNITEKIDVAFVDRADIKQYIGPPSAAAIFKIYLSCLEELMKCQIIYPRQQLLTLRELEMIGFIENNVSKLSLLLNDISRKSEGLSGRVLRKLPFLAHALYVQAPTVTIEGFLQALSLAVDKQFEERKKLAAYI | -0.09713 log2 | 0.9602 log2
GNB2 (protein, UniProt P62879 2-340, looked up) Guanine nucleotide-binding …: SELEQLRQEAEQLRNQIRDARKACGDSTLTQITAGLDPVGRIQMRTRRTLRGHLAKIYAMHWGTDSRLLVSASQDGKLIIWDSYTTNKVHAIPLRSSWVMTCAYAPSGNFVACGGLDNICSIYSLKTREGNVRVSRELPGHTGYLSCCRFLDDNQIITSSGDTTCALWDIETGQQTVGFAGHSGDVMSLSLAPDGRTFVSGACDASIKLWDVRDSMCRQTFIGHESDINAVAFFPNGYAFTTGSDDATCRLFDLRADQELLMYSHDNIICGITSVAFSRSGRLLLAGYDDFNCNIWDAMKGDRAGVLAGHDNRVSCLGVTDDGMAVATGSWDSFLKIWN | -0.1195 log2 | -1.0406 log2
MYBBP1A (protein, UniProt Q9BQG0 1-1328, looked up) Myb-binding protein 1A: MESRDPAQPMSPGEATQSGARPADRYGLLKHSREFLDFFWDIAKPEQETRLAATEKLLEYLRGRPKGSEMKYALKRLITGLGVGRETARPCYSLALAQLLQSFEDLPLCSILQQIQEKYDLHQVKKAMLRPALFANLFGVLALFQSGRLVKDQEALMKSVKLLQALAQYQNHLQEQPRKALVDILSEVSKATLQEILPEVLKADLNIILSSPEQLELFLLAQQKVPSKLKKLVGSVNLFSDENVPRLVNVLKMAASSVKKDRKLPAIALDLLRLALKEDKFPRFWKEVVEQGLLKMQFWPASYLCFRLLGAALPLLTKEQLHLVMQGDVIRHYGEHVCTAKLPKQFKFAPEMDDYVGTFLEGCQDDPERQLAVLVAFSSVTNQGLPVTPTFWRVVRFLSPPALQGYVAWLRAMFLQPDLDSLVDFSTNNQKKAQDSSLHMPERAVFRLRKWIIFRLVSIVDSLHLEMEEALTEQVARFCLFHSFFVTKKPTSQIPETKHPFSFPLENQAREAVSSAFFSLLQTLSTQFKQAPGQTQGGQPWTYHLVQFADLLLNHSHNVTTVTPFTAQQRQAWDRMLQTLKELEAHSAEARAAAFQHLLLLVGIHLLKSPAESCDLLGDIQTCIRKSLGEKPRRSRTKTIDPQEPPWVEVLVEILLALLAQPSHLMRQVARSVFGHICSHLTPRALQLILDVLNPETSEDENDRVVVTDDSDERRLKGAEDKSEEGEDNRSSESEEESEGEESEEEERDGDVDQGFREQLMTVLQAGKALGGEDSENEEELGDEAMMALDQSLASLFAEQKLRIQARRDEKNKLQKEKALRRDFQIRVLDLVEVLVTKQPENALVLELLEPLLSIIRRSLRSSSSKQEQDLLHKTARIFTHHLCRARRYCHDLGERAGALHAQVERLVQQAGRQPDSPTALYHFNASLYLLRVLKGNTAEGCVHETQEKQKAGTDPSHMPTGPQAASCLDLNLVTRVYSTALSSFLTKRNSPLTVPMFLSLFSRHPVLCQSLLPILVQHITGPVRPRHQACLLLQKTLSMREVRSCFEDPEWKQLMGQVLAKVTENLRVLGEAQTKAQHQQALSSLELLNVLFRTCKHEKLTLDLTVLLGVLQGQQQSLQQGAHSTGSSRLHDLYWQAMKTLGVQRPKLEKKDAKEIPSATQSPISKKRKKKGFLPETKKRKKRKSEDGTPAEDGTPAATGGSQPPSMGRKKRNRTKAKVPAQANGTPTTKSPAPGAPTRSPSTPAKSPKLQKKNQKPSQVNGAPGSPTEPAGQKQHQKALPKKGVLGKSPLSALARKKARLSLVIRSPSLLQSGAKKKAQVRKAGKP | -0.04518 log2 | 2.289 log2

The next lines start with results.

Difference (log2), PP1 vs untreated [1] | Molecule | Difference (log2), untreated vs GFP (GFP-14-3-3β)
-0.08165 log2 | CSNK1A1 (protein, UniProt P48729 2-337, looked up) Casein kinase I isoform alpha: ASSSGSKAEFIVGGKYKLVRKIGSGSFGDIYLAINITNGEEVAVKLESQKARHPQLLYESKLYKILQGGVGIPHIRWYGQEKDYNVLVMDLLGPSLEDLFNFCSRRFTMKTVLMLADQMISRIEYVHTKNFIHRDIKPDNFLMGIGRHCNKLFLIDFGLAKKYRDNRTRQHIPYREDKNLTGTARYASINAHLGIEQSRRDDMESLGYVLMYFNRTSLPWQGLKAATKKQKYEKISEKKMSTPVEVLCKGFPAEFAMYLNYCRGLRFEEAPDYMYLRQLFRILFRTLNHQYDYTFDWTMLKQKAAQQAASSSGQGQQAQTPTGKQTDKTKSNMKGF | 0.6201 log2
-0.05274 log2 | PATL1 (protein, UniProt Q86TB9 1-770, looked up) Protein PAT1 homolog 1: MFRYESLEDCPLDEDEDAFQGLGEEDEEIDQFNDDTFGSGAVDDDWQEAHERLAELEEKLPVAVNEQTGNGERDEMDLLGDHEENLAERLSKMVIENELEDPAIMRAVQTRPVLQPQPGSLNSSIWDGSEVLRRIRGPLLAQEMPTVSVLEYALPQRPPQGPEDDRDLSERALPRRSTSPIIGSPPVRAVPIGTPPKQMAVPSFTQQILCPKPVHVRPPMPPRYPAPYGERMSPNQLCSVPNSSLLGHPFPPSVPPVLSPLQRAQLLGGAQLQPGRMSPSQFARVPGFVGSPLAAMNPKLLQGRVGQMLPPAPGFRAFFSAPPSATPPPQQHPPGPGPHLQNLRSQAPMFRPDTTHLHPQHRRLLHQRQQQNRSQHRNLNGAGDRGSHRSSHQDHLRKDPYANLMLQREKDWVSKIQMMQLQSTDPYLDDFYYQNYFEKLEKLSAAEEIQGDGPKKERTKLITPQVAKLEHAYKPVQFEGSLGKLTVSSVNNPRKMIDAVVTSRSEDDETKEKQVRDKRRKTLVIIEKTYSLLLDVEDYERRYLLSLEEERPALMDDRKHKICSMYDNLRGKLPGQERPSDDHFVQIMCIRKGKRMVARILPFLSTEQAADILMTTARNLPFLIKKDAQDEVLPCLLSPFSLLLYHLPSVSITSLLRQLMNLPQSAATPALSNPHLTAVLQNKFGLSLLLILLSRGEDLQSSDPATESTQNNQWTEVMFMATRELLRIPQAALAKPISIPTNLVSLFSRYVDRQKLNLLETKLQLVQGIR | -0.4586 log2
-0.06583 log2 | LIG3 (protein, UniProt P49916 43-1009, looked up) DNA ligase 3: LLHGHPLFLRRKPVLSFQGSHLRSRATYLVFLPGLHVGLCSGPCEMAEQRFCVDYAKRGTAGCKKCKEKIVKGVCRIGKVVPNPFSESGGDMKEWYHIKCMFEKLERARATTKKIEDLTELEGWEELEDNEKEQITQHIADLSSKAAGTPKKKAVVQAKLTTTGQVTSPVKGASFVTSTNPRKFSGFSAKPNNSGEAPSSPTPKRSLSSSKCDPRHKDCLLREFRKLCAMVADNPSYNTKTQIIQDFLRKGSAGDGFHGDVYLTVKLLLPGVIKTVYNLNDKQIVKLFSRIFNCNPDDMARDLEQGDVSETIRVFFEQSKSFPPAAKSLLTIQEVDEFLLRLSKLTKEDEQQQALQDIASRCTANDLKCIIRLIKHDLKMNSGAKHVLDALDPNAYEAFKASRNLQDVVERVLHNAQEVEKEPGQRRALSVQASLMTPVQPMLAEACKSVEYAMKKCPNGMFSEIKYDGERVQVHKNGDHFSYFSRSLKPVLPHKVAHFKDYIPQAFPGGHSMILDSEVLLIDNKTGKPLPFGTLGVHKKAAFQDANVCLFVFDCIYFNDVSLMDRPLCERRKFLHDNMVEIPNRIMFSEMKRVTKALDLADMITRVIQEGLEGLVLKDVKGTYEPGKRHWLKVKKDYLNEGAMADTADLVVLGAFYGQGSKGGMMSIFLMGCYDPGSQKWCTVTKCAGGHDDATLARLQNELDMVKISKDPSKIPSWLKVNKIYYPDFIVPDPKKAAVWEITGAEFSKSEAHTADGISIRFPRCTRIRDDKDWKSATNLPQLKELYQLSKEKADFTVVAGDEGSSTTGGSSEENKGPSGSAVSRKAPSKPSASTKKAEGKLSNSNSKDGNMQTAKPSAMKVGEKLATKSSPVKVGEKRKAADETLCQTKVLLDIFTGVRLYLPPSTPDFSRLRRYFVAFDGDLVQEFDMTSATHVLGSRDKNPAAQQVSPEWIWACIRKRRLVAPC | -0.6994 log2
-0.1001 log2 | HNRNPA1;HNRNPA1L2 (protein, UniProt P09651 1-372, looked up) Heterogeneous nuclear …: MSKSESPKEPEQLRKLFIGGLSFETTDESLRSHFEQWGTLTDCVVMRDPNTKRSRGFGFVTYATVEEVDAAMNARPHKVDGRVVEPKRAVSREDSQRPGAHLTVKKIFVGGIKEDTEEHHLRDYFEQYGKIEVIEIMTDRGSGKKRGFAFVTFDDHDSVDKIVIQKYHTVNGHNCEVRKALSKQEMASASSSQRGRSGSGNFGGGRGGGFGGNDNFGRGGNFSGRGGFGGSRGGGGYGGSGDGYNGFGNDGGYGGGGPGYSGGSRGYGSGGQGYGNQGSGYGGSGSYDSYNNGGGGGFGGGSGSNFGGGGSYNDFGNYNNQSSNFGPMKGGNFGGRSSGPYGGGGQYFAKPRNQGGYGGSSSSSSYGSGRRF | 0.6063 log2
